Like-named read-outs stand apart in the source and are kept apart here.
Legend:
[1] = molecular target: T1, recombinant human TREM2 protein (amino acids 19 to 174) (human, UniProt Q9NZC2 19-174); assay: ELISA
T1 chain: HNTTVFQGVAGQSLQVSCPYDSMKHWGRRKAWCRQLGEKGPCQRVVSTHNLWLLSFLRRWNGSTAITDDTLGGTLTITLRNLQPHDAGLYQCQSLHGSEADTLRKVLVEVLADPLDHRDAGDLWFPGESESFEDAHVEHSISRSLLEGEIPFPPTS

[2] = molecular target: T2, recombinant human TREM2 protein (amino acids 19 to 174) (human, UniProt Q9NZC2 19-174); assay: ELISA, crude VHH extract on coated TREM2, anti-HA-HRP; positive if OD450 more than five times the control
T2 construct: range 19-174
T2 sequence (looked up): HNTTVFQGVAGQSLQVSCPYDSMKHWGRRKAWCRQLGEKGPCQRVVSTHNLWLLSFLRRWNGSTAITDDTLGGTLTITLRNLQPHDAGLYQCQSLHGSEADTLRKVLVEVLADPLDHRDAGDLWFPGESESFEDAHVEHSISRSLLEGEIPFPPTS
Protocol: Crude antibodies were obtained by osmotic bursting. The TREM2 recombinant proteins were diluted in 100 mM NaHCO₃ of pH 8.3, respectively. An ELISA plate was then coated with 100 μg of the proteins and left at 4° C. overnight. 100 μL of the obtained crude antibody extract was transferred to the ELISA plate into which the antigen was added. The plate was incubated at room temperature for 1 h. The unbound antibody was washed away with phosphate buffered saline with Tween (PBST), and 100 μL of Mouse Anti-HA tag Antibody (HRP) (mouse anti-HA horseradish peroxidase-labeled antibody, Thermo Fisher) at 1:2000 dilution was added and incubated at room temperature for 1 h. The unbound antibody was washed away with PBST, and a horseradish peroxidase color development solution was added. After react at 37° C. for 15 min, a stopping solution was added. The absorbance value was read at the wavelength of 450 nm on a microplate reader.
When an optical density (OD) value of a sample well is more than five times greater than that of the control well, the sample well is identified as a positive clone well. The bacteria in the positive clone well were transferred to an LB medium containing 100 μg/mL ampicillin under shaking for plasmid extraction and sequencing.

[3] = molecular target: T2, recombinant human TREM2 protein (amino …); assay: ELISA, VHH-hFc titrated on coated TREM2 (1 ug/mL), HRP-goat anti-hIgG
[4] = molecular target: T1, recombinant human TREM2 protein (amino …); assay: ELISA
[5] = molecular target: T1, recombinant human TREM2 protein (amino …); assay: ELISA
[6] = molecular target: T1, recombinant human TREM2 protein (amino …); assay: ELISA

B1: 12G12W-hFC1 (Fc fusion antibody of single-domain antibody 12G12W) (Fc fusion)
chain (part 1 of 2): ESGGGLVQAGESLRLSCAASGRTFTNYAMGWFRQAPGKEREFVAGVSWSGSSTDYADSVKGRFTISTDNAKNTVYLQMTSLKPEDTAVYICGVKYFGHSRGGYDYWGQGTQVTVSS
- EC50 [1]: 0.254 nM

B2: single-domain antibody 12G12W (VHH)
VHH: ESGGGLVQAGESLRLSCAASGRTFTNYAMGWFRQAPGKEREFVAGVSWSGSSTDYADSVKGRFTISTDNAKNTVYLQMTSLKPEDTAVYICGVKYFGHSRGGYDYWGQGTQVTVSS
notes: Crude extract from E. coli (pMECS vector), detected through an HA tag
- binding result [2]: binds

B3: Fc fusion antibody of single-domain antibody 10B3 (Fc fusion)
chain: ESGGGLVQAGESLRLSCAASGRTFTNYAMGWFRQAPGKEREFVAGVSWSGSSTDYADSVKGRFTISTDNAKNTVYLQINNLKPEDTAVYICGVKYFGHSRGGYDYWGQGTQVTVSS
notes: also called VHH-hFc; not shown: human IgG1 (vector RJK-V4-hFC1) or IgG4 (vector RJK-V4-3) hinge, CH2, CH3 with 6xHis tag; which of the two is told only
- binding result [3]: binds
- EC50 [4]: 0.242 nM

B4: single-domain antibody 11D3 (VHH)
VHH: ESGGGLVQAGESLRLSCAASGRTFTDYAMGWFRQAPGKEREFVAGVSWSGSSTDYADSVKGRFTISTDNAKNTVYLQMTSLKPEDTAVYICGVKYFGHSRGGYDYWGQGTQVTVSS
notes: as for B2
- binding result [2]: binds

B5: single-domain antibody 10B3 (VHH)
VHH: ESGGGLVQAGESLRLSCAASGRTFTNYAMGWFRQAPGKEREFVAGVSWSGSSTDYADSVKGRFTISTDNAKNTVYLQINNLKPEDTAVYICGVKYFGHSRGGYDYWGQGTQVTVSS
notes: as for B2
- binding result [2]: binds

B6: Fc fusion antibody of single-domain antibody 11D3 (Fc fusion)
chain: ESGGGLVQAGESLRLSCAASGRTFTDYAMGWFRQAPGKEREFVAGVSWSGSSTDYADSVKGRFTISTDNAKNTVYLQMTSLKPEDTAVYICGVKYFGHSRGGYDYWGQGTQVTVSS
notes: as for B3
- EC50 [5]: 0.337 nM
- binding result [3]: binds

B7: Fc fusion antibody of single-domain antibody 1H1 (Fc fusion)
chain: ESGGGLVQPGGSLRLSCAASGRTFSSYVMGWFRQAPGKEREFVAAISWSGGITYYGDSVKGRFTISRDNAKNTVFLQMNSLKPEDTAVYYCASGSGSYYRGWEYDYWGQGTQVTVSS
notes: as for B3
- binding result [3]: binds
- EC50 [6]: 0.38 nM

B8: single-domain antibody 1H1 (VHH)
VHH: ESGGGLVQPGGSLRLSCAASGRTFSSYVMGWFRQAPGKEREFVAAISWSGGITYYGDSVKGRFTISRDNAKNTVFLQMNSLKPEDTAVYYCASGSGSYYRGWEYDYWGQGTQVTVSS
notes: as for B2
- binding result [2]: binds

B9: Fc fusion antibody of single-domain antibody 10E12 (Fc fusion)
chain: ESGGGLVQPGGSLRLSCAASGFTFSGYYMSWVRQVPGKARELVAGITRGGNTYYADSVKGRFTISRDNAKNTVYLQMNNLKPEDTTVYYCNARRATTYYWGQGTQVTVSS
notes: as for B3
- binding result [3]: binds
- EC50 [4]: 0.293 nM

B10: 11H2-hFC4 (Fc fusion antibody of single-domain antibody 11H2) (Fc fusion)
chain (part 1 of 2): ESGGGLVQPGGSLRLSCAASGLTFSEYYMSWVRQVPGKARELVAGITRGGNTYYADSVKGRFTISRDNAKNTVYLQMNNLKPEDTTVYYCNARRATTYYWGQGTQVTVSS
- EC50 [5]: 0.33 nM

B11: single-domain antibody 10E12 (VHH)
VHH: ESGGGLVQPGGSLRLSCAASGFTFSGYYMSWVRQVPGKARELVAGITRGGNTYYADSVKGRFTISRDNAKNTVYLQMNNLKPEDTTVYYCNARRATTYYWGQGTQVTVSS
notes: as for B2
- binding result [2]: binds

B12: single-domain antibody 11H2 (VHH)
VHH: ESGGGLVQPGGSLRLSCAASGLTFSEYYMSWVRQVPGKARELVAGITRGGNTYYADSVKGRFTISRDNAKNTVYLQMNNLKPEDTTVYYCNARRATTYYWGQGTQVTVSS
notes: as for B2
- binding result [2]: binds

B13: Fc fusion antibody of single-domain antibody 12G10 (Fc fusion)
chain: ESGGGLVQPGGSLRLSCAASGFAFSNYVMHWYRQAPEKERELVAIIGSQGGAYTNYAASVKGRFTISRDNAKNMVYLQMNNLKPEDTAVYYCNVVYIGRPNWGQGTQVTVSS
notes: as for B3
- EC50 [5]: 0.3 nM
- binding result [3]: binds

B14: single-domain antibody 12G10 (VHH)
VHH: ESGGGLVQPGGSLRLSCAASGFAFSNYVMHWYRQAPEKERELVAIIGSQGGAYTNYAASVKGRFTISRDNAKNMVYLQMNNLKPEDTAVYYCNVVYIGRPNWGQGTQVTVSS
notes: as for B2
- binding result [2]: binds

B15: Fc fusion antibody of single-domain antibody 10F10 (Fc fusion)
chain: ESGGGLVQPGGSLRLSCAASGFAFGNYVMHWYRQAPEKERELVAIIGSQGGTYTNYADSVKGRFTISRDNAKNMVYLQMNNLKPEDTAVYYCNVVYIGRPNWGQGTQVTVSS
notes: as for B3
- binding result [3]: binds
- EC50 [4]: 0.265 nM

B16: single-domain antibody 2B5 (VHH)
VHH: ESGGGLVQPGGSLRLSCAASGFAFSNYVMHWYRQAPEKERELVALIGSQGGAYTNYAGSVKGRFTISRDNTKNMVYLQMNNLKPEDTAVYYCNVVYNGRPNWGQGTQVTVSS
notes: as for B2
- binding result [2]: binds

B17: Fc fusion antibody of single-domain antibody 2B5 (Fc fusion)
chain: ESGGGLVQPGGSLRLSCAASGFAFSNYVMHWYRQAPEKERELVALIGSQGGAYTNYAGSVKGRFTISRDNTKNMVYLQMNNLKPEDTAVYYCNVVYNGRPNWGQGTQVTVSS
notes: as for B3
- binding result [3]: binds
- EC50 [6]: 0.201 nM

B18: single-domain antibody 10F10 (VHH)
VHH: ESGGGLVQPGGSLRLSCAASGFAFGNYVMHWYRQAPEKERELVAIIGSQGGTYTNYADSVKGRFTISRDNAKNMVYLQMNNLKPEDTAVYYCNVVYIGRPNWGQGTQVTVSS
notes: as for B2
- binding result [2]: binds
